Assay results published in paper doi:10.1101/806364.

How the values were obtained:
Assay in all cases: selective 80S ribosome footprinting
[1] = biological target: eIF3B (human (endogenous in HeLa)) (UniProt P55884)
[2] = biological target: eIF4E (human (endogenous in HeLa)) (UniProt P06730)
[3] = biological target: eIF4G1 (human (endogenous in HeLa)) (UniProt Q04637)

Measured: decay half-length of the factor on elongating 80S ribosomes

Chain of UniProt P55884 (P55884 whole entry): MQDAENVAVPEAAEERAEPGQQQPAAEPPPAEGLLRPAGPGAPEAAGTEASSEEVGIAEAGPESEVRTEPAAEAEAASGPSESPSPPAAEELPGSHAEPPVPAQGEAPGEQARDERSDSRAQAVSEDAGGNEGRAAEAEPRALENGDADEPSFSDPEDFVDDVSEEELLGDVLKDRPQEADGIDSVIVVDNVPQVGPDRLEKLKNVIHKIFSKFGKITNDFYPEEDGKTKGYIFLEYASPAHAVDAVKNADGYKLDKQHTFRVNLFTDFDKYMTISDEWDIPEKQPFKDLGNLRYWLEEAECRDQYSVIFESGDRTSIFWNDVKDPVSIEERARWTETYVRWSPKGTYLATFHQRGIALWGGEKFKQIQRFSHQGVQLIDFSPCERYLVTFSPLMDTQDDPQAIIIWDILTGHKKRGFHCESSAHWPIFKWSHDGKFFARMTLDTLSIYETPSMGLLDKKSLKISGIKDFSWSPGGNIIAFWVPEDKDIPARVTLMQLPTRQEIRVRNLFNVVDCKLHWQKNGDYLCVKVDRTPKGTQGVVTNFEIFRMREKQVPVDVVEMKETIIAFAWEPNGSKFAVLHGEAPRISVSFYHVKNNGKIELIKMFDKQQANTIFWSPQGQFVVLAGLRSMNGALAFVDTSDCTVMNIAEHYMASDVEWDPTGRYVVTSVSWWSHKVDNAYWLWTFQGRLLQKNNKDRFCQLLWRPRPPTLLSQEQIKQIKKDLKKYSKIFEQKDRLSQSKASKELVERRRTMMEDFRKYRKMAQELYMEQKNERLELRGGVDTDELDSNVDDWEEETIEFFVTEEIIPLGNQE
Chain of UniProt Q04637 (Q04637 whole entry): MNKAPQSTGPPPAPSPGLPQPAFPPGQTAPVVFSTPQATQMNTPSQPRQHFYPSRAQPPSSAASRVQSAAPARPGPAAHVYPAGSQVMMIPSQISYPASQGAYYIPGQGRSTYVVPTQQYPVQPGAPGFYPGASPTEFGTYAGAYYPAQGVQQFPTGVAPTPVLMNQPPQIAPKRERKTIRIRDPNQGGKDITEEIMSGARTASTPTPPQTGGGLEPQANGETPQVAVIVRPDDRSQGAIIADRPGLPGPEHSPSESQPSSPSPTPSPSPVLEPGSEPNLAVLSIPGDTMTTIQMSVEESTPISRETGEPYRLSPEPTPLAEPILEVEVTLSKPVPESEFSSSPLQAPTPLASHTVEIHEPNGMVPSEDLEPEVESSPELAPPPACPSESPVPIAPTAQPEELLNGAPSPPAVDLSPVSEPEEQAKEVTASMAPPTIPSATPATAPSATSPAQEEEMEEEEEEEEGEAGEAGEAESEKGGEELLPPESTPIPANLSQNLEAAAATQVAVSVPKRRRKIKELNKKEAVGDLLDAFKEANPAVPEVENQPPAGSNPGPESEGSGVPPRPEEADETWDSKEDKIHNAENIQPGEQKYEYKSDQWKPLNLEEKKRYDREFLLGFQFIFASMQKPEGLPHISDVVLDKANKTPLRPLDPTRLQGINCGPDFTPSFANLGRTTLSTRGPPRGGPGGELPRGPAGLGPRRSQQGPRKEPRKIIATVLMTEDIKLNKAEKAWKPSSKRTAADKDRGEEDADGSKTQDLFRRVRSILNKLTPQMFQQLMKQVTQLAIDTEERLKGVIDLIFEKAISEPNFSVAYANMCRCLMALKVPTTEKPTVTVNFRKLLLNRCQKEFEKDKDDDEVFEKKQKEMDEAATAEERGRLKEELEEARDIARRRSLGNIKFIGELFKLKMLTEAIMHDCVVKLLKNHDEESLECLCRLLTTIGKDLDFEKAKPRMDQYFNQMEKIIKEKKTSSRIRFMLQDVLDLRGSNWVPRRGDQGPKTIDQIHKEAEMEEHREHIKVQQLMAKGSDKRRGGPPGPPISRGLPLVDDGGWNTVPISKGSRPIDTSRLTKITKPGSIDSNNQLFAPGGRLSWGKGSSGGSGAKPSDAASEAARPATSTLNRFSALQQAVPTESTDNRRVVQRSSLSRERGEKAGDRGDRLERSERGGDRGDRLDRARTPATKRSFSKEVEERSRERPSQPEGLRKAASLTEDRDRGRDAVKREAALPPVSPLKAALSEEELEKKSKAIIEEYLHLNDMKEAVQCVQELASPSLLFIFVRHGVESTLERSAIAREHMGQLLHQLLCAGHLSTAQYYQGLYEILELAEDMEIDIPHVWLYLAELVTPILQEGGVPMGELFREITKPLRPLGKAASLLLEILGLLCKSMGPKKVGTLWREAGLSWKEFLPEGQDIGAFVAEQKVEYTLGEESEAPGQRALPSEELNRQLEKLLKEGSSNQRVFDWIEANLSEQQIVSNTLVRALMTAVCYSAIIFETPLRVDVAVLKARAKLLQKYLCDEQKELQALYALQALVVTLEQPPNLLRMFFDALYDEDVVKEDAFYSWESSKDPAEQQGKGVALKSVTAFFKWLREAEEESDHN
Chain of UniProt P06730 (P06730 whole entry): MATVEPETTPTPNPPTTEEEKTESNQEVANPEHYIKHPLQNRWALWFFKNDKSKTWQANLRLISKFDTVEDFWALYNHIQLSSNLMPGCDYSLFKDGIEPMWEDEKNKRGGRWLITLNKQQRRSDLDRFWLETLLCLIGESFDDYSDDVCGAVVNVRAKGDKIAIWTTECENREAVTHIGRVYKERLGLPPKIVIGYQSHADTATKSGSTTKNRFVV

80S ribosome (complex)
36 nucleotides: [1] | [2] | [3]
